From paper PMC7311918

Target: SARS-CoV-2 S 2P trimer (S ectodomain, residues 16-1206) (SARS-CoV-2) (UniProt P0DTC2)
Assay: SEC-MALS

Substance “SARS-CoV-2 S 2P trimer (S ectodomain, residues 16-1206) (from UniProt P0DTC2 16-1206) (natural protein)” has a stoichiometry N of 3.
